# Measurements reported in publication PMC3721995.
# Ends that are not written are not given here. * marks the point of attachment. Biotin = O=C1N[C@H]2[C@H](CS[C@H]2CCCCC(=O)*)N1
# Target: recombinant HIV-1 gp120BaL protein (HIV-1 (isolate BaL))
# Assay: ELISA; solid-phase ELISA; gp120BaL coated at 8 ug/ml (50 mM bicarbonate pH 9.6, 4°C, 16 h); biotinylated peptides at 30 ug/ml in 20 mM Tris-HCl pH 7.4, 0.05% Tween-20, 37°C, 60 min; detected with AP-streptavidin, read at 405 nm
row,Binder,relative binding
1,Biotin-ALDDVRCSGHESYLW [SRCR1 peptide P15],2
2,"Biotin-GWLSHNCGHGEDAGV [SRCR1 peptide P19, biotinylated]",7.5
3,Biotin-GSGPIALDDVRCSGH [SRCR1 peptide P14],1.5
4,Biotin-NCGHGEDAGVICSA (cysteine pairing not given here) [SRCR1 peptide P20],1.5
5,Biotin-RGSWGTVCDDSWDTN [SRCR1 peptide P6],4.5
6,Biotin-VEILYRGSWGTVCDD [SRCR1 peptide P5],4
